According to the RNAGym collection of RNA variant scans (doi:10.7554/elife.80360):

B1: Hammerhead Ribozyme (parent)
chain: ACCGGAUGUGCUUUCCGGUCUGAUGAGUCCGUGAGGACGAAACAG

Variants of: B1
Assay: self-cleavage, relative activity (ratio to wild type); higher = more cleavage; co-transcriptional

Variant | self-cleavage
G36C C43U | 0.308
G36C C43A | 0.35
A34U G36C | 0.406
A34U G36U | 0.565
A34U G36A | 0.437
G36C A41U | 0.294
G36C A41C | 0.364
G36C A41G | 0.449
G35C C38U | 0.67
G35C C38G | 0.376
G35C C38A | 0.398
G36U G39A | 0.352
G36U G39C | 0.34
G36U G39U | 0.333
G35U A41U | 0.311
G35U A41G | 0.33
G35U A41C | 0.305
G36C A42C | 0.321
G36C A42G | 0.272
G36C A42U | 0.286
G35U A37G | 0.679
G35U A37C | 0.548
G35U A37U | 0.52
G36A C38A | 0.345

Variant | self-cleavage
G36A C38U | 0.531
G36A C38G | 0.342
G36C C38A | 0.403
G36C C38U | 0.335
G36C C38G | 0.369
G35A A41C | 0.32
G35A A41U | 0.278
G35A A41G | 0.328
A37U A40U | 0.303
A37U A40C | 0.472
A37U A40G | 0.284
A37G A44U | 0.595
A37G A44C | 0.313
A37G A44G | 0.74
A37C A42U | 0.27
A37C A42G | 0.235
A37C A42C | 0.241
G35C A44G | 0.692
G35C A44U | 0.465
G35C A44C | 0.42
A37G G45U | 0.567
A37G G45A | 0.486
A37G G45C | 0.416
A37U A41G | 0.406

Variant | self-cleavage
A37U A41C | 0.34
A37U A41U | 0.307
G35A C38G | 0.387
G35A C38A | 0.482
G35A C38U | 0.587
C38A A40G | 0.369
C38A A40U | 0.307
C38A A40C | 0.411
G35A A42C | 0.354
G35A A42G | 0.252
G35A A42U | 0.29
G36U A44C | 0.339
G36U A44G | 0.706
G36U A44U | 0.379
G36C A40C | 0.4
G36C A40U | 0.346
G36C A40G | 0.368
G35U A42C | 0.384
G35U A42G | 0.253
G35U A42U | 0.344
A34U G39A | 0.288
A34U G39U | 0.356
A34U G39C | 0.351
G35A A40C | 0.435

Variant | self-cleavage
G35A A40G | 0.37
G35A A40U | 0.317
C38U A41G | 0.352
C38U A41U | 0.453
C38U A41C | 0.32
G35U C38U | 0.775
G35U C38A | 0.404
G35U C38G | 0.374
G35A C43U | 0.401
G35A C43G | 0.353
G35A C43A | 0.322
G36A A40C | 0.319
G36A A40U | 0.384
G36A A40G | 0.289
C38A G39C | 0.4
C38A G39U | 0.315
C38A G39A | 0.325
G36A C43U | 0.378
G36A C43G | 0.274
G36A C43A | 0.383
G36U C43G | 0.325
G36U C43U | 0.304
G36U C43A | 0.36
G36A A37G | 0.556

Variant | self-cleavage
G36A A37U | 0.533
G36A A37C | 0.414
G35C G36U | 0.401
G35C G36C | 0.425
G35C G36A | 0.504
A37C C43U | 0.392
A37C C43A | 0.301
A37C C43G | 0.28
G39A A40C | 0.387
G39A A40U | 0.291
G39A A40G | 0.383
C38G A41G | 0.404
C38G A41U | 0.316
C38G A41C | 0.298
C38G | 0.767
C38U | 0.974
C38A | 0.833
C38A C43A | 0.335
C38A C43G | 0.382
C38A C43U | 0.462
A37C A41U | 0.296
A37C A41C | 0.285
A37C A41G | 0.404
A37U C43U | 0.38

Variant | self-cleavage
A37U C43A | 0.31
A37U C43G | 0.271
G35U A40G | 0.342
G35U A40C | 0.374
G35U A40U | 0.366
G36C A44G | 0.588
G36C A44U | 0.296
G36C A44C | 0.383
C38U A44U | 0.648
C38U A44C | 0.596
C38U A44G | 1.44
G36U A40C | 0.43
G36U A40G | 0.29
G36U A40U | 0.281
C38G A42G | 0.321
C38G A42C | 0.226
C38G A42U | 0.354
G39A A41C | 0.341
A37C A40C | 0.285
A37C A40G | 0.354
A37C A40U | 0.268
A37C G39U | 0.281
A37C G39A | 0.295
A37C G39C | 0.316

Variant | self-cleavage
A37G A40U | 0.399
A37G A40C | 0.407
A37G A40G | 0.274
A34U G35U | 0.584
A34U G35C | 0.631
C38U G45U | 0.593
C38U G45C | 0.529
C38U G45A | 0.689
C38G A44G | 0.833
C38G A44C | 0.508
C38G A44U | 0.407
G35C A41U | 0.356
G35C A41G | 0.329
G35C A41C | 0.337
G35C A40U | 0.296
G35C A40G | 0.28
G35C A40C | 0.466
C38U G39C | 0.584
C38U G39U | 0.3
C38U G39A | 0.363
G36C G45C | 0.393
G36C G45U | 0.367
G36C G45A | 0.374
